# Assay results: publication PMC12099206
# Columns and labels:
# [1] = target: CmFDL1 expressed in chrysanthemum protoplasts (Chrysanthemum morifolium)
# [2] = target: CmFTL3 expressed in chrysanthemum protoplasts (Chrysanthemum morifolium)
substance,measurement,setting,value
CmTCP7 expressed in chrysanthemum protoplasts (natural protein),"decrease in Luc activity of CmCDM111Lpro:Luc in chrysanthemum protoplasts (dual-luciferase), CmTCP7, CmFTL3 and CmFDL1 co-transfected against CmFTL3 and CmFDL1",[1],80%
same,"decrease in Luc activity of CmCDM111Lpro:Luc in chrysanthemum protoplasts (dual-luciferase), CmTCP7, CmFTL3 and CmFDL1 co-transfected against CmFTL3 and CmFDL1",[2],80%
